Where no end group is shown, it is not given here.
What was measured:
[1] = biological target: T1, C113T109N biotin labeled HCV core peptide (hepatitis C virus, also: biotin labeled, position not given here); test: capture EIA with biotin peptide
T1 construct: also called C113T110N
T1 peptide: RGSRPSWGPND

[2] = biological target: T2, C113WT biotin labeled HCV core peptide (hepatitis C virus, also: biotin labeled, position not given here); test: capture EIA with biotin peptide
T2 peptide: RGSRPSWGPTD

[3] = biological target: T1, C113T109N biotin labeled HCV core …; test: capture EIA; Ab 2000 ng/mL; bt-peptide 500 ng/mL
Experimental: (§1) Assay wells were coated with sheep anti-mouse IgG Fc specific antibody and incubated overnight. The coating solution was then removed; the wells blocked using BSA/tween in PBS and then washed with dH2O. […] Next, biotin labeled peptides (diluted to 500 ng/mL in block) were added, the plates incubated for 10 minutes while shaking at 700 rpm and then washed. Peroxidase conjugated streptavidin (diluted to 200 ng/mL in block) was then added to all assay wells, incubated for 20 minutes while shaking at 700 rpm and then washed. Finally, color was developed using OPD and signal quenched using 1N H₂SO₄. Signal was read at 492 nm.

[4] = biological target: T3, WT1STHV biotin labeled HCV core peptide (hepatitis C virus, biotin labeled (position not given)); test: capture EIA; Ab 2000 ng/mL; bt-peptide 500 ng/mL
T3 peptide: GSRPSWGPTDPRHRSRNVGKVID

[5] = biological target: T4, Mut1T110N biotin labeled HCV core peptide (hepatitis C virus, biotin labeled (position not given)); test: capture EIA; Ab 2000 ng/mL; bt-peptide 500 ng/mL
T4 peptide: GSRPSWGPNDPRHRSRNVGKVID

[6] = biological target: T2, C113WT biotin labeled HCV core peptide; test: capture EIA; Ab 2000 ng/mL; bt-peptide 500 ng/mL
Experimental: as §1

[7] = biological target: T5, Mut6T110S biotin labeled HCV core peptide (hepatitis C virus, biotin labeled (position not given)); test: capture EIA; Ab 2000 ng/mL; bt-peptide 500 ng/mL
[8] = biological target: T6, 92-133 biotin labeled HCV core peptide (hepatitis C virus, UniProt Q9WMX2 92-133, chain 1: biotin label (bt-pep). Its position and any spacer are not visible in the passages shown.); test: capture EIA; Ab 2000 ng/mL; bt-peptide 500 ng/mL
T6 construct: Only the label 92-133 is printed
T6 peptide: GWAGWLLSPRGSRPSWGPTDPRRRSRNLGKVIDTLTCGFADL
Experimental: as §1

[9] = biological target: T1, C113T109N biotin labeled HCV core …; test: capture EIA; Ab 31.25 ng/mL; bt-peptide 500 ng/mL
Experimental: as §1

[10] = biological target: T3, WT1STHV biotin labeled HCV core peptide; test: capture EIA; Ab 31.25 ng/mL; bt-peptide 500 ng/mL
Experimental: as §1

[11] = biological target: T4, Mut1T110N biotin labeled HCV core …; test: capture EIA; Ab 31.25 ng/mL; bt-peptide 500 ng/mL
Experimental: as §1

[12] = biological target: T2, C113WT biotin labeled HCV core peptide; test: capture EIA; Ab 31.25 ng/mL; bt-peptide 500 ng/mL
Experimental: as §1

[13] = biological target: T5, Mut6T110S biotin labeled HCV core …; test: capture EIA; Ab 31.25 ng/mL; bt-peptide 500 ng/mL
Experimental: as §1

[14] = biological target: T6, 92-133 biotin labeled HCV core peptide; test: capture EIA; Ab 31.25 ng/mL; bt-peptide 500 ng/mL
Experimental: as §1

[15] = biological target: T1, C113T109N biotin labeled HCV core …; test: capture EIA; Ab 7.813 ng/mL; bt-peptide 500 ng/mL
Experimental: as §1

[16] = biological target: T3, WT1STHV biotin labeled HCV core peptide; test: capture EIA; Ab 7.813 ng/mL; bt-peptide 500 ng/mL
Experimental: as §1

[17] = biological target: T4, Mut1T110N biotin labeled HCV core …; test: capture EIA; Ab 7.813 ng/mL; bt-peptide 500 ng/mL
Experimental: as §1

[18] = biological target: T2, C113WT biotin labeled HCV core peptide; test: capture EIA; Ab 7.813 ng/mL; bt-peptide 500 ng/mL
Experimental: as §1

[19] = biological target: T5, Mut6T110S biotin labeled HCV core …; test: capture EIA; Ab 7.813 ng/mL; bt-peptide 500 ng/mL
Experimental: as §1

[20] = biological target: T6, 92-133 biotin labeled HCV core peptide; test: capture EIA; Ab 7.813 ng/mL; bt-peptide 500 ng/mL
Experimental: as §1

[21] = biological target: T1, C113T109N biotin labeled HCV core …; test: capture EIA; Ab 15.625 ng/mL; bt-peptide 500 ng/mL
Experimental: as §1

[22] = biological target: T3, WT1STHV biotin labeled HCV core peptide; test: capture EIA; Ab 15.625 ng/mL; bt-peptide 500 ng/mL
Experimental: as §1

[23] = biological target: T4, Mut1T110N biotin labeled HCV core …; test: capture EIA; Ab 15.625 ng/mL; bt-peptide 500 ng/mL
Experimental: as §1

[24] = biological target: T2, C113WT biotin labeled HCV core peptide; test: capture EIA; Ab 15.625 ng/mL; bt-peptide 500 ng/mL
Experimental: as §1

[25] = biological target: T5, Mut6T110S biotin labeled HCV core …; test: capture EIA; Ab 15.625 ng/mL; bt-peptide 500 ng/mL
Experimental: as §1

[26] = biological target: T6, 92-133 biotin labeled HCV core peptide; test: capture EIA; Ab 15.625 ng/mL; bt-peptide 500 ng/mL
Experimental: as §1

B1: Neo4 mouse monoclonal antibody (antibody, V domains shown)
VH: QIQLKESGPAVIKPSQSLSLTCIVSGFSITSSVYCWQWIRQPPGKGLEWMGRICYDGSVDYSPSITSRGTISRDTSLNKVFFQLSSVTNEDTAMYYCSRENHIDYYDTTYPSFDVWGAGTTVTVSS
VL: DIVLTQSPASLIVSLGQRATISCRASKSVNEYGYTYMHWYQQKPGLPPKLLIYLASNLDSGVPARFSGSGSGTDFTLNIHPVEEEDAATYYCQHSRELPYTFGGGTKLEIKR
notes: Mouse hybridoma antibody, isotype IgG1, purified with Protein G; also called HCV Neo4
B1 was tested, and the binding result [1] was “no binding”, the binding result [2] was “no binding” and the “signal at 492 nm” value [3] was 0.059 A492. For the same binder, the “signal at 492 nm” value [4] was 1.9 A492, the “signal at 492 nm” value [5] was 0.0882 A492 and the “signal at 492 nm” value [6] was 0.0766 A492. For the same binder, the “signal at 492 nm” value [7] was 1.17 A492, the “signal at 492 nm” value [8] was 1.31 A492 and the “signal at 492 nm” value [9] was 0.0815 A492. The “signal at 492 nm” value [10] was 1.67 A492, the “signal at 492 nm” value [11] was 0.0938 A492 and the “signal at 492 nm” value [12] was 0.0622 A492. For the same binder, the “signal at 492 nm” value [13] was 0.48 A492, the “signal at 492 nm” value [14] was 1.11 A492 and the “signal at 492 nm” value [15] was 0.0751 A492. The “signal at 492 nm” value [16] was 1.04 A492, the “signal at 492 nm” value [17] was 0.0729 A492 and the “signal at 492 nm” value [18] was 0.0731 A492. The “signal at 492 nm” value [19] was 0.132 A492, the “signal at 492 nm” value [20] was 0.45 A492 and the “signal at 492 nm” value [21] was 0.0736 A492. The “signal at 492 nm” value [22] was 1.42 A492, the “signal at 492 nm” value [23] was 0.0771 A492 and the “signal at 492 nm” value [24] was 0.0697 A492. The “signal at 492 nm” value [25] was 0.25 A492 and the “signal at 492 nm” value [26] was 0.806 A492.

Source: patent publication US20190170753A1 (ICAHN SCHOOL OF MEDICINE AT MOUNT SINAI, published 2019)
